Assay results: patent US20200308591A1, “PROMOTER REGION ANALYSIS METHODS AND CELLS FOR PRACTICING SAME” (Eurofins DiscoverX Corporation, priority 2019, published 2020)

T1: RANK (Receptor activator of nuclear factor κ B receptor) co-expressed in U2OS NFκB pathway reporter cells (UniProt Q9Y6Q6)
T1 sequence (looked up): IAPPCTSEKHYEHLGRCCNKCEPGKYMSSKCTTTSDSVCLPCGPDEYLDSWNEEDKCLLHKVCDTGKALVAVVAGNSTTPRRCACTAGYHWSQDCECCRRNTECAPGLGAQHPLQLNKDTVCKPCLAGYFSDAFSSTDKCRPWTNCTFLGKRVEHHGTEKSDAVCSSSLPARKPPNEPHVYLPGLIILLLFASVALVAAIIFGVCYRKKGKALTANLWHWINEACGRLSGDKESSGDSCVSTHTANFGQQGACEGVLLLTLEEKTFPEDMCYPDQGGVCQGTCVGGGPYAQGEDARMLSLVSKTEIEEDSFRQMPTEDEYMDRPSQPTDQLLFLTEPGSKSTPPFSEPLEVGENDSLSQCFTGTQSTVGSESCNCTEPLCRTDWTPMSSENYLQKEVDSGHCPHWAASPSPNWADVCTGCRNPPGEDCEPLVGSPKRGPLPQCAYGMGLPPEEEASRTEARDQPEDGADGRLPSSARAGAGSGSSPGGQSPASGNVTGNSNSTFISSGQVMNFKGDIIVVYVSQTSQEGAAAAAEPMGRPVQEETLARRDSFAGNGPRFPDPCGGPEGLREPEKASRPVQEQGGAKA

T2: RANK (Receptor activator of nuclear factor κ B receptor) (Homo sapiens, UniProt Q9Y6Q6)
T2 construct: expressed in transfected cells; host or cells: U2OS
T2 sequence (Q9Y6Q6 30-616): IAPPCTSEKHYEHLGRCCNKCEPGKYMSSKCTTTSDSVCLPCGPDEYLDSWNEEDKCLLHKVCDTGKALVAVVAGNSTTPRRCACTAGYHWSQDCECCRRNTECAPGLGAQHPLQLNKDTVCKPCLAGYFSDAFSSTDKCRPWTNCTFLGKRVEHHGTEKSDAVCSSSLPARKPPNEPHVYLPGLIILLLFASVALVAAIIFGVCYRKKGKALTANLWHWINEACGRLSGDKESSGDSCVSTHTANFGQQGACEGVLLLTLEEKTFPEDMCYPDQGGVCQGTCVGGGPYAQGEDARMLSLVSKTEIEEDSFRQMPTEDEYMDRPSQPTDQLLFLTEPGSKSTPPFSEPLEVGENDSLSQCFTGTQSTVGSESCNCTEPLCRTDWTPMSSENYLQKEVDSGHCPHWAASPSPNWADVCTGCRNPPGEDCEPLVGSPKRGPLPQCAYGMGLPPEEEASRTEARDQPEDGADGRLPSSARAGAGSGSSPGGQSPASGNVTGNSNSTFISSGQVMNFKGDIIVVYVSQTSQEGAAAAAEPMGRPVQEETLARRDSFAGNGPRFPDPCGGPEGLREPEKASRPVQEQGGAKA


Key:
CD40 receptor [1] = target: T3, CD40 receptor (Homo sapiens, UniProt P25942); experiment: U2OS NF-κB pathway reporter assay with carrier protein (Example 12); type: cell-based; conditions: 5000 cells/well; 6 h at 37 °C
T3 construct: The cells also endogenously express CD40 (receptor); endogenous in cells; host or cells: U2OS
T3 sequence (P25942 21-277): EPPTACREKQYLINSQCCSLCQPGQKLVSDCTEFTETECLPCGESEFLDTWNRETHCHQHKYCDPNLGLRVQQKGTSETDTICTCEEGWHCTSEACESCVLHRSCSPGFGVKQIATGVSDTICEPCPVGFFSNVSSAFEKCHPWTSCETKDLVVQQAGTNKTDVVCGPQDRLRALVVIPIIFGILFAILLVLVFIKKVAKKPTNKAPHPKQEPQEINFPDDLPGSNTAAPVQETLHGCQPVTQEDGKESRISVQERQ
Text: (§1) A reporter cell line was engineered to express a carrier protein-Enzyme Donor (ED) tagged carrier protein controlled by a pathway-inducible transcriptional response element. Pathway activation results in induced expressions of the carrier protein-ED-tagged protein. Addition of exogenous Enzyme Acceptor (EA), and buffer, lyses the cell and forces complementation of the ED and EA enzyme fragments.
In this example, the cell line is a NFκB (nuclear factor NF-kappa-B p100 subunit) pathway reporter cell line. The cells are U2OS cells that include a nucleic acid encoding a reporter fragment and β-galactosidase donor fragment (ED) having the amino acid sequence […] (SEQ ID NO:30) operably coupled to a promoter region comprising a NFκB response element. The cells also endogenously express CD40 (receptor).
(§2) Cells were plated in a 96-well plate and incubated at 37° C. and 5% CO2 to allow the cells to attach and grow. Cells were then stimulated with a control agonist (here, CD40L), using the assay conditions described below. Following stimulation, signal was detected using the PathHunter® ProLabel®/ProLink™ Detection Kit (Eurofins DiscoverX Corporation) according to the recommended protocol.

CD40 receptor [2] = target: T3, CD40 receptor; experiment: NFkB EFC reporter assay cells, CD40L stimulation (FIG. 7); type: cell-based; conditions: 3h or 6h incubation
Text: Often multiple ligands acting through different cellular receptors will stimulate the same signaling pathway allowing the same EFC reporter assay to be used to study the function and inhibition of function for these multiple ligands. For example, in FIGS. 4-6 stimulation and inhibition of TNFα-stimulated NFkB signaling and gene expression was studied.

[3] = tested on: NFκB (nuclear factor NF-kappa-B p100 subunit) pathway; experiment: U2OS NFκB pathway reporter cell line (Example 7); type: cell-based; conditions: 5000 cells/well; 360 min at 37 °C
Text: A reporter cell line was engineered to express an Enzyme Donor (ED) tagged carrier protein controlled by a pathway-inducible transcriptional response element. Pathway activation results in induced expressions of the ED-tagged protein. Addition of exogenous Enzyme Acceptor (EA), and buffer, lyses the cell and forces complementation of the ED and EA enzyme fragments.
In this example, the cell line is an NFκB (nuclear factor NF-kappa-B p100 subunit) pathway reporter cell line. The cells are U2OS cells that include a nucleic acid encoding a β-galactosidase donor fragment (ED) having the amino acid sequence […] (SEQ ID NO:30) operably coupled to a promoter region comprising an NFκB response element.
as §2

CD40 receptor [4] = target: T3, CD40 receptor; experiment: EFC-based versus Luciferase NFκB transcriptional reporter assay, CD40L; type: cell-based; conditions: 6h stimulation
Procedure: FIG. 13. […] U2OS cells stably transfected with a plasmid encoding an NFκB transcriptional response element driving expression of either the EFC reporter (left panel) or (Firefly) Luciferase-PEST were stimulated with a range of concentrations of CD40L for 6h followed by cell lysis, addition of excess EA, incubation for 1h and determination of luminescence (RLU). The luminescence detected indicates the extent of induction of the respective carrier protein by CD40L.
The EFC-based NFκB transcriptional reporter assay was over 35 times more sensitive to CD40L than the luciferase-based assay. Note that the reporter plasmids used to make the stable cell lines had identical elements with the only significant difference being the identity of the carrier protein. Specifically, both plasmids had the same promoter elements and both had the same protein destabilizing element (PEST sequence).

RANK = experiment: Comparison of U2OS NF-κB and U2OS RANK-NF-κB reporter cell lines (Example 16); type: cell-based; conditions: FIG. 24b versus FIG. 24a
Text: Two reporter cell lines were engineered to express a carrier protein-Enzyme Donor (ED) tagged carrier protein controlled by a pathway-inducible transcriptional response element. Pathway activation results in induced expressions of the carrier protein-ED-tagged protein. Addition of exogenous Enzyme Acceptor (EA), and buffer, lyses the cell and forces complementation of the ED and EA enzyme fragments.
In this example, a first cell line is a U2OS-NF-κB pathway reporter cell line and the second cell line is U2OS RANK-NF-κB cell line. The cells are U2OS for both the cell lines as prepared in this example 16. The U2OS-NF-κB cell line includes a nucleic acid encoding a reporter fragment and β-galactosidase donor fragment (ED) having the amino acid sequence […] (SEQ ID NO:30) operably coupled to a promoter region comprising a NFκB response element. The U2OS RANK-NF-κB cell line includes a nucleic acid encoding a reporter fragment and β-galactosidase donor fragment (ED) having the amino acid sequence […] (SEQ ID NO:30) operably coupled to a promoter region comprising a NFκB response element followed by co-expression of RANK-CD27 (receptor) in the above-developed U2OS NF-κB pathway reporter cell line.
Assay results for U2OS NF-κB cell line with CD40L ligand is shown in FIG. 24a and assay results for U2OS RANK NF-κB cell line with sRANK ligand is shown in FIG. 24b.

[5] = target: T1, RANK (Receptor activator of nuclear factor κ B receptor) co-expressed in U2OS NFκB pathway reporter cells; experiment: cell-based or functional assay
[6] = target: T2, RANK (Receptor activator of nuclear factor κ B receptor); experiment: U2OS RANK-NFκB pathway reporter assay (Example 13); type: cell-based; conditions: 5000 cells/well; 16 h at 37 °C
Text: as §1
In this example, the cell line is a NFκB (Nuclear factor NF-kappa-B p100 subunit) pathway reporter cell line. The cells are U2OS cells that include a nucleic acid encoding a reporter fragment and β-galactosidase donor fragment (ED) having the amino acid sequence […] (SEQ ID NO:30) operably coupled to a promoter region comprising a NFκB response element. To produce the RANK-NFκB reporter assay RANK (Receptor activator of nuclear factor κ B receptor) is co-expressed in the above-developed U2OS NFκB Pathway Reporter cells.
Cells were plated in a 96-well plate and incubated at 37° C. and 5% CO2 to allow the cells to attach and grow. Cells were then stimulated with a control agonist (here, sRANKL), using the assay conditions described below. Following stimulation, signal was detected using the PathHunter® ProLabel®/ProLink™ Detection Kit (Eurofins DiscoverX Corporation) according to the recommended protocol.

Row | Molecule | EC50 for control agonist stimulation (CD40 receptor [1]) [ng/mL] | signal:background ratio (CD40 receptor [1]) | response of endogenous CD40 receptor to ligand (CD40 receptor [2]) | EC50 for control agonist stimulation [3] [ng/mL] | signal:background ratio at agonist EMAX [3] | sensitivity of EFC-based assay relative to luciferase-based assay (CD40 receptor [4]) | EC50 compared with U2OS NF-κB cell line with CD40L (RANK) | signal:background ratio compared with U2OS NF-κB cell line with CD40L (RANK) | EC50 for control agonist stimulation, U2OS RANK-NFκB pathway reporter cell line [5] [ng/mL] | signal:background ratio, U2OS RANK-NFκB pathway reporter cell line [5] | EC50 for control agonist stimulation [6] [ng/mL] | signal:background ratio [6]
1 | CD40L: CD40 ligand, control agonist acting through the CD40 receptor | 88.6 | 102.8 | responded robustly | 225.4 | 26.3 | over 35 times | – | – | – | – | – | –
2 | soluble RANKL (ligand, UniProt O14788 143-317, looked up) EKAMVDGSWLDLAKRSKLEAQPFAHLTINATDIPSGSHKVSLSSWYHDRGWAKISNMTFSNGKLIVNQDGFYYLYANICFRHHETSGDLATEYLQLMVYVTKTSIKIPSSHTLMKGGSTKYWSGNSEFHFYSINVGGFFKLRSGEEISIEVSNPSLLDPDQDATYFGAFKVRDID | – | – | – | – | – | – | lower EC50 | larger signal:background ratio | 4.03 | 24 | 4.034 | 24.0
